In patent US20230235333, “APTAMER FOR IL-21 AND USE THEREOF” (RIBOMIC INC, published 2023) one finds activity, binding result and IC50 data, which are given here for 16 molecules.

Conditions in all cases: tags: PeproTech
Series [1] deals with T1, IL-21 (interleukin-21) (Homo sapiens, UniProt Q9HBE4 SEQ:25-162). In words: cell_activity; 10 nM aptamer, scored −. Here is the method:
(§1) After overnight culture, the same medium was used to seed 2×10⁴ cells per well for testing. Human IL-21 alone or a mixed solution of human IL-21 and aptamer was added thereto and the cells were cultured for 16 hr. The final concentration of human IL-21 was adjusted to 0.05 nM. After 16 hr, the culture supernatant was collected and IFN-γ contained in the supernatant was quantified by sandwich ELISA method. An ELISA Kit manufactured by R&D Systems or Diaclone was used for quantification. After quantification, the inhibitory rate was calculated using the following formula.
Whether these aptamers bind to human IL-21 and inhibit the function thereof was evaluated by a method similar to that in Example 1. Aptamers were obtained by transcription using double-stranded DNA as a template. […] In addition, “n.d.” indicates unmeasured.

For series [2], the target named is T1, IL-21 (interleukin-21). The experiment in a line: SPR; negative control, no binding. For orientation: SPR reads the build-up and loss of mass on a sensor chip optically.
In series [3] the target is T1, IL-21 (interleukin-21). The experiment in a line: cell_activity; 1 nM aptamer; 100.0% at 0.1 nM. How it is done:
as §1
Whether these aptamers bind to human IL-21 and inhibit the function thereof was evaluated by preparing the aptamers by chemical synthesis and using a method similar to that in Example 1. The evaluation of inhibition in the cell assay system was performed at nucleic acid final concentrations of 1 nM and 0.1 nM. […] In the Table, “n.d.” indicates unmeasured.

In series [4] the target is T1, IL-21 (interleukin-21). In words: cell_activity; IFN-gamma secretion from NK92 cells stimulated with human IL-21. Here is the method: as §1
Whether these aptamers bind to human IL-21 and inhibit the function thereof was evaluated by preparing the aptamers by chemical synthesis and using a method similar to that in Example 1. […] The evaluation of inhibition in the cell assay system was performed at nucleic acid final concentrations of 1 nM and 0.2 nM. In addition, in a cell assay system, the aptamer concentration (IC₅₀) at which IFN-γ secretion was inhibited by 50% by IL-21 stimulation was determined. In the Table, “n.d.” indicates unmeasured.

Series [5] deals with T1, IL-21 (interleukin-21). In words: cell_activity; 10 nM aptamer. How it is done: as §1
Whether these aptamers bind to human IL-21 and inhibit the function thereof was evaluated by a method similar to that in Example 1. Aptamers were obtained by transcription using double-stranded DNA as a template. The evaluation of inhibition in the cell assay system was performed at a nucleic acid final concentration of 10 nM. […] In the Table, “n.d.” indicates unmeasured.

Series [6] concerns the target T1, IL-21 (interleukin-21). The experiment in a line: cell_activity; 1 nM aptamer; 100.0 at 0.2 nM. How it is done: as §1
Whether these aptamers bind to human IL-21 and inhibit the function thereof was evaluated by preparing the aptamers by chemical synthesis and using a method similar to that in Example 1. The evaluation of inhibition in the cell assay system was performed at nucleic acid final concentrations of 1 nM and 0.2 nM. […] In the Table, “n.d.” indicates unmeasured.

T1 sequence (Q9HBE4 25-162): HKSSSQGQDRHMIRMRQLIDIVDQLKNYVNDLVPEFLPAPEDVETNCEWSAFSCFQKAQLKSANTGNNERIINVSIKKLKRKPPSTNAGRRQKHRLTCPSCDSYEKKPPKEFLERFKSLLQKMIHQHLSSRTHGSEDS

GGACCUUCAACACGCGAUACUCGUGAUUGCCCGUCC (ssRNA, 2'-F pyrimidines) [SEQ14] came in with an activity in the series with IL-21 (interleukin-21) [1] of 13.3 % inhibition.

As for GGACCUUCAACACGCGACUCUCGUGAUUGCCCGUCC (ssRNA, 2'-F pyrimidines) [SEQ16], the activity in the series with IL-21 (interleukin-21) [1] came out at 10.7 % inhibition.

The molecule GGACCUUCAACACGCGACACUCGUGAUUGCCCGUCC (ssRNA, 2'-F pyrimidines) [SEQ15] returned an activity with IL-21 (interleukin-21) [1] of 10.7 % inhibition.

B1: SEQ49 negative control 51mer (ssRNA)
RNA: GGGAAGCUCCGUCGAGCUUUCCUGCAUAAGCUGUAUUGCAGCCAGCAUUUA
As to B1, in the series with IL-21 (interleukin-21) [2], the binding result was “no binding”.

On to GACCUUCAACCCGCGGCUACUCGGGAUUGCCCGUC (ssRNA, as SEQ38(1) with PS after G15) [SEQ38(14)], for which, in the series with IL-21 (interleukin-21) [3], the activity came out at 100 % inhibition.

On to GACCUUCAACCCGCGGCUACUCGGGAUUGCCCGUC (ssRNA, as SEQ38(1) with PS after G15,G16) [SEQ38(18)], for which the activity with IL-21 (interleukin-21) [3] was 100 % inhibition.

Molecule GACCUUCAACCCGCGGCUACUCGGGAUUGCCCGUC (ssRNA, as SEQ38(1) with PS after G16) [SEQ38(15)] returned an activity with IL-21 (interleukin-21) [3] of 100 % inhibition.

In the case of GACCUUCAACCCGCGGCUACUCGGGAUUGCCCGUC (ssRNA, as SEQ38 plus 5' 40 kDa PEG) [SEQ38(1)], the midpoint of inhibition with IL-21 (interleukin-21) [4], the IC50, lay at 0.02 nM.

The molecule GGACCGUCAACACGCGACUACUCGUGAUUGCCCGUCC (ssRNA, 2'-F all pyrimidines) [SEQ39] had an activity with IL-21 (interleukin-21) [5] of 56.1 % inhibition.

In the series with IL-21 (interleukin-21) [5], GGACCUUCAACACGCGACGACUCGUGAUUGCCCGUCC (ssRNA, 2'-F all pyrimidines) [SEQ41] returned an activity of 32.4 % inhibition.

On to GGACCUUCAACACGCGACUACCCGUGAUUGCCCGUCC (ssRNA, 2'-F all pyrimidines) [SEQ42], for which the activity in the series with IL-21 (interleukin-21) [5] was found to be 39 % inhibition.

In the series with IL-21 (interleukin-21) [5], GGACCUUCAACACGCGACUACUCGUGAUUGCACGUCC (ssRNA, 2'-F all pyrimidines) [SEQ43] returned an activity of 43.7 % inhibition.

In the case of GGACCUUCAACACGCGGCUACUCGUGAUUGCCCGUCC (ssRNA, as SEQ22(2) plus 5'-PEG 40 kDa; 3'-idT) [SEQ22(15)], in the series with IL-21 (interleukin-21) [6], the activity came to 100 % inhibition.

In the series with IL-21 (interleukin-21) [6], GGACCUUCAACACGCGGCUACUCGUGAUUGCCCGUCC (ssRNA, as SEQ22(1) plus 2'-OMe C4,U28,U29; 3'-idT) [SEQ22(2)] returned an activity of 100 % inhibition.

With GGACCUCCAACACGCGACUACUCGUGAUUGCCCGUCC (ssRNA, 2'-F all pyrimidines) [SEQ40], the activity in the series with IL-21 (interleukin-21) [5] amounted to 42 % inhibition.

B2: SEQ22(1) (ssRNA)
RNA: GGACCUUCAACACGCGGCUACUCGUGAUUGCCCGUCC
modifications: 2'-OMe 1-3,9-14,20,21,24-27,30-32,34-37; 2'-F 4-8,15,18,19,22,23,28,29,33; 2'-OH G16,G17; 3'-idT
The molecule B2 yielded an activity with IL-21 (interleukin-21) [6] of 100 % inhibition.

By IC50 is commonly meant the concentration that gives 50% inhibition. A low value points to greater potency.
